From IntAct's records for PubMed 23602662

B1: Cell surface glycoprotein CD200 receptor 4 (Mus musculus), Q6XJV4 (parent)
chain: MHALGRIPTLTLLIFINIFVSGSSCTDENQTIQNDSSSSLTQVNTTMSVQMDKKALLCCFSSPLINAVLITWIIKHRHLPSCTIAYNLDKKTNETSCLGRNITWASTPDHSPELQISAVALQHEGTYTCEIVTPEGNLEKVYDLQVLVPPEVTYFPGKNRTAVCEAMAGKPAAQISWTPDGDCVTKSESHSNGTVTVRSTCHWEQNNVSVVSCLVSHSTGNQSLSIELSQGTMTTPRSLLTILYVKMALLVIILLNVGFAFFQKRNFART
partner: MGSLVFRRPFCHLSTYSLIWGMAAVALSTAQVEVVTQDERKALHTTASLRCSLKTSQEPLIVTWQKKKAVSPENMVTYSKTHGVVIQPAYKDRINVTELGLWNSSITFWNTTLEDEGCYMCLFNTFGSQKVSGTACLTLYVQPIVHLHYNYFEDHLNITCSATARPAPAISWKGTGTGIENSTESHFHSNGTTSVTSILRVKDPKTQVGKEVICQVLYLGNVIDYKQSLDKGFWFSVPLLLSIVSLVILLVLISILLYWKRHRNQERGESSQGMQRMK
B2: OX-2 membrane glycoprotein (Mus musculus), O54901 (parent)
chain: B1 partner
partner: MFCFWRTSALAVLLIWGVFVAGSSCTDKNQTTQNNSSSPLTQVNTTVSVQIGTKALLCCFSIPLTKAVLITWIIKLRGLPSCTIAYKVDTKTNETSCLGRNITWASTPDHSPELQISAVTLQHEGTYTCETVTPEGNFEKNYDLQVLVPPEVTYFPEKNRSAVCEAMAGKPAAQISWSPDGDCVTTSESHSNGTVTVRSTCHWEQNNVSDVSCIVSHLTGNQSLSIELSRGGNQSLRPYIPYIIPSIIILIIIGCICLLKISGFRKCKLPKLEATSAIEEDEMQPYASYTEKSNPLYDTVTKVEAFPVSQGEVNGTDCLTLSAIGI

Variants of: B1
Settings: with ox2g_mouse Cd200, O54901

Row | Variant | effect of a mutation on the interaction
1 | N87K;K90T | increasing interaction strength
2 | L138F | increasing interaction strength
3 | N87K;K90T;L138F | increasing interaction strength

Variants of: B2
Settings: with mo2r1_mouse Cd200r1, Q9ES57

Row | Variant | effect of a mutation on the interaction
4 | N74D | disrupting interaction strength
5 | N74A | disrupting interaction strength
6 | L60K | disrupting interaction strength
7 | K130E | disrupting interaction strength
8 | F126A | disrupting interaction strength
9 | F126D | disrupting interaction strength
10 | L122A | disrupting interaction strength
11 | N124K | disrupting interaction strength
12 | I61E | disrupting interaction strength
